Blank lines part the entries; values can stand above or below the binder they belong to.
Molecular target: T1, human GRF receptor (human, UniProt Q02643 23-423)
T1 sequence (looked up): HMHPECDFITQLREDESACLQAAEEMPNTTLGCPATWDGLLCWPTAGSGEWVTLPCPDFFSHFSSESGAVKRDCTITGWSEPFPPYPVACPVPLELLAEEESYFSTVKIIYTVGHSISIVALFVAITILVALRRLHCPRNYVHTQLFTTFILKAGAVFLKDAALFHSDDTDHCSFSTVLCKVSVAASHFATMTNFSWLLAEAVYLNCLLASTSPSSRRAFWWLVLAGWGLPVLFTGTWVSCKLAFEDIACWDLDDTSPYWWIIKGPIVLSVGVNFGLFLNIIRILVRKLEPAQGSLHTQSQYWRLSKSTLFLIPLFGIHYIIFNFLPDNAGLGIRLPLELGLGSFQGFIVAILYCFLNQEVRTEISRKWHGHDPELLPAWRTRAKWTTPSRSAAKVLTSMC
Experiment: cell-based or functional assay

EC50 as assessed by alkaline phosphatase (AP) induction: 1.18 nM
B1: Trans-3-hexenoyl-Y-A-D-A-I-F-T-D-S-Y-R-K-V-L-A-Q-L-O-A-R-Q-D-I-L-S-r-NH2 (SEQ ID NO: 24) (peptide)
peptide: YADAIFTDSYRKVLAQLXARQDILSX
HELM: PEPTIDE1{[CC/C=C/CC(=O)[*:2]].Y.A.D.A.I.F.T.D.S.Y.R.K.V.L.A.Q.L.[Orn].A.R.Q.D.I.L.S.[dR].[am]}$$$$V2.0
SMILES: CC/C=C/CC(=O)N[C@@H](Cc1ccc(O)cc1)C(=O)N[C@@H](C)C(=O)N[C@@H](CC(=O)O)C(=O)N[C@@H](C)C(=O)N[C@H](C(=O)N[C@@H](Cc1ccccc1)C(=O)N[C@H](C(=O)N[C@@H](CC(=O)O)C(=O)N[C@@H](CO)C(=O)N[C@@H](Cc1ccc(O)cc1)C(=O)N[C@@H](CCCNC(=N)N)C(=O)N[C@@H](CCCCN)C(=O)N[C@H](C(=O)N[C@@H](CC(C)C)C(=O)N[C@@H](C)C(=O)N[C@@H](CCC(N)=O)C(=O)N[C@@H](CC(C)C)C(=O)N[C@@H](CCCN)C(=O)N[C@@H](C)C(=O)N[C@@H](CCCNC(=N)N)C(=O)N[C@@H](CCC(N)=O)C(=O)N[C@@H](CC(=O)O)C(=O)N[C@H](C(=O)N[C@@H](CC(C)C)C(=O)N[C@@H](CO)C(=O)N[C@H](CCCNC(=N)N)C(N)=O)[C@@H](C)CC)C(C)C)[C@@H](C)O)[C@@H](C)CC

EC50 as assessed by alkaline phosphatase (AP) induction: 0.72 nM
B2: Y-a-DAIFTDSYRKVLAQLKARQDIL-aib-R-NH2 (SEQ ID NO: 22) (peptide)
peptide: YXDAIFTDSYRKVLAQLKARQDILXR
HELM: PEPTIDE1{Y.[dA].D.A.I.F.T.D.S.Y.R.K.V.L.A.Q.L.K.A.R.Q.D.I.L.[Aib].R.[am]}$$$$V2.0; N-terminus assumed
SMILES: CC[C@H](C)[C@H](NC(=O)[C@H](C)NC(=O)[C@H](CC(=O)O)NC(=O)[C@@H](C)NC(=O)[C@@H](N)Cc1ccc(O)cc1)C(=O)N[C@@H](Cc1ccccc1)C(=O)N[C@H](C(=O)N[C@@H](CC(=O)O)C(=O)N[C@@H](CO)C(=O)N[C@@H](Cc1ccc(O)cc1)C(=O)N[C@@H](CCCNC(=N)N)C(=O)N[C@@H](CCCCN)C(=O)N[C@H](C(=O)N[C@@H](CC(C)C)C(=O)N[C@@H](C)C(=O)N[C@@H](CCC(N)=O)C(=O)N[C@@H](CC(C)C)C(=O)N[C@@H](CCCCN)C(=O)N[C@@H](C)C(=O)N[C@@H](CCCNC(=N)N)C(=O)N[C@@H](CCC(N)=O)C(=O)N[C@@H](CC(=O)O)C(=O)N[C@H](C(=O)N[C@@H](CC(C)C)C(=O)NC(C)(C)C(=O)N[C@@H](CCCNC(=N)N)C(N)=O)[C@@H](C)CC)C(C)C)[C@@H](C)O

EC50 as assessed by alkaline phosphatase (AP) induction: 1.14 nM
B3: Y-a-D-A-I-F-T-D-S-Y-R-K-V-L-A-Q-L-O-A-R-Q-D-I-L-S-r-NH2 (SEQ ID NO: 23) (peptide)
peptide: YXDAIFTDSYRKVLAQLXARQDILSX
HELM: PEPTIDE1{Y.[dA].D.A.I.F.T.D.S.Y.R.K.V.L.A.Q.L.[Orn].A.R.Q.D.I.L.S.[dR].[am]}$$$$V2.0; N-terminus assumed
SMILES: CC[C@H](C)[C@H](NC(=O)[C@H](C)NC(=O)[C@H](CC(=O)O)NC(=O)[C@@H](C)NC(=O)[C@@H](N)Cc1ccc(O)cc1)C(=O)N[C@@H](Cc1ccccc1)C(=O)N[C@H](C(=O)N[C@@H](CC(=O)O)C(=O)N[C@@H](CO)C(=O)N[C@@H](Cc1ccc(O)cc1)C(=O)N[C@@H](CCCNC(=N)N)C(=O)N[C@@H](CCCCN)C(=O)N[C@H](C(=O)N[C@@H](CC(C)C)C(=O)N[C@@H](C)C(=O)N[C@@H](CCC(N)=O)C(=O)N[C@@H](CC(C)C)C(=O)N[C@@H](CCCN)C(=O)N[C@@H](C)C(=O)N[C@@H](CCCNC(=N)N)C(=O)N[C@@H](CCC(N)=O)C(=O)N[C@@H](CC(=O)O)C(=O)N[C@H](C(=O)N[C@@H](CC(C)C)C(=O)N[C@@H](CO)C(=O)N[C@H](CCCNC(=N)N)C(N)=O)[C@@H](C)CC)C(C)C)[C@@H](C)O

Reference: patent US20120270784A1 (THERATECHNOLOGIES, published 2012)
